The data set in a line: soluble on expression in E. coli; label from the status in PepcDB or PDB records.
As to “MAHHHHHHMNLIVHDLDFMKRILLNDERKWGEESAPGEGRTESSHQPKIITIVLNNTLCAHSAKFIANSDVLICADGGANRLYNLCQSLATERGAIDDEGSSLKGEEDKNTALHASHTNERSHHVSGRHTISDLFNMPVEKKEKALKRPTEIVPHIICGDFDSINAHVYSYYKNKSVIFEKCANQENTDLDKCIDVIRGYIRTNDKILILGATGNRFDHTCANISCLYKNASLNSLYLIGENNFLFLLQQGSHIIHVSPDVFCKGCGILPFGGKCTIKTEGLKYNLNDECLSFDTLISSSNEVVQREVKIFNDSPVVWSAQLI”, the “soluble on expression in E. coli” value was “not soluble”.

For “GAMDTMESIVLNTIVTGLQEPKKEFIARVIKTIGSQRSLQLYENAMKVENSGGLLTADMSRRKTIGGVFCYLLKQLVAEDQITIQEWNYIRQEEKERINAKNILKRNNRRCQV”, the “soluble on expression in E. coli” value is “soluble”.

As to “MQQQKTVQPEAKQKVEVGVLAIRGHLYAEQRWQPTIDWLNQQISDVHFELHPLNLDEMGEAVKFQTMDFILTNPGQAVRLGRQYALSWMATLTGRAPQNSNYSIGSALVVRANSPYQTLKDVSGFPVAAVSEKAFGGYLTLRYQIVEMGLDPNDFFADVRYLGFPIDANLYQLRDGNVEAAVVPACLLEQMQNEGLLQHGDFRVLNQQPNEHSSCAVSTPLYPNWSFAKTERGSSLLAKKIAQVLLAMPPEHP”, the “soluble on expression in E. coli” value is “not soluble”.

On to “MEDQLTIFIISDSLGETAKAIAKACLSQFPGHDDWHFQRFSYINSQERLEQVFEEASQKTVFMMFSLVDVALASYAQKRCESEHYAYVDLLTNVIQGISRISGIDPLGEPGILRRLDNDYFKRVESIEFAVKYDDGRDPRGILQADLVIIGISRTSKTPLSMFLADKNIKVINIPLVPEVPVPKELRMIDSRRIIGLTNSVDHLNQVRKVRLKSLGLSSTANYASLERILEETRYAEEVMKNLGCPIINVSDKAIEETATIILEILKTNGQVAKNLLEHHHHHH”, for which the “soluble on expression in E. coli” value is recorded as “not soluble”.

Regarding “DGYWYGDYYGVMSFGVNTDLVQEVPKSWEALLDSQYANAFALAGDPRASNQAILAVMSAGIADGTEPGEASGKKGLEFFGKLNKAGGFVPVIGKAGTIAQGQTPIVAAWDYNLLSWRDELKGNPPMEVVIPEGPSLAGVYVQAISAFAPHPNAAKLWMEYLYS”, the “soluble on expression in E. coli” value is “not soluble”.

With “GSHMSKSDVFHLGLTKNDLQGATLAIVPGDPDRVEKIAALMDKPVKLASHREFTTWRAELDGKPVIVCSTGIGGPSTSIAVEELAQLGIRTFLRIGTTGAIQPHINVGDVLVTTASVRLDGASLHFAPLEFPAVADFECTTALVEAAKSIGATTHVGVTASSDTFYPGQERYDTYSGRVVRHFKGSMEEWQAMGVMNYEMESATLLTMCASQGLRAGMVAGVIVNRTQQEIPNAETMKQTESHAVKIVVEAARRLL”, the “soluble on expression in E. coli” value is listed as “soluble”.

Turning to “MGHHHHHHSHMEELLPDGQIWANMDPEERMLAAATAFTHICAGQGEGDVRREAQSIQYDPYSKASVAPGKRPALPVQLQYPHVESNVPSETVSEASQRLRKPVMKRKVLRRKPDGEVLVTDESIISESESGTENDQDLWDLRQRLMNVQFQEDKESSFDVSQKFNLPHEYQGISQDQLICSLQREGMGSPAYEQDLIVASRPKSFILPKLDQLSRNRGKTDRVARYFEYKRDWDSIRLPGEDHRKELRWGVREQMLCRAEPQSKPQHIYVPNNYLVPTEKKRSALRWGVRCDLANGVIPRKLPFPLSPS”, the “soluble on expression in E. coli” value is listed as “not soluble”.

On to “MGSDKIHHHHHHMNEIAGIPYVEASFDKNGQGPEEEVALPAGVTDLIIMSHGWNNNKSKAEDLYNGFFASFAAAAQPNDLSARKLVILGVFWPSREYDTSVAVSGTPATGGGGAALGGGNGGSIKRLEEKLDDMKEIFTEAEQKKLLDEAKALLPDLEEKASVRDLFVNKMRSLLDPSAAGKEDASNIFFKDGGNELMKNLKAEEEDLGEDVAGGGAALPLGVSTPARAEGGAAGLVEILSGFKAAAINLLNYTTYYEMKTRSGTVGKNGVAPLIDKLASQVERIHLIGHSFGCRVVTSAALGSKTDKIKSMILLQAAFSQNGFSKIEQGFYRAIVDNHRVKGPVLITHTPNDRAVGLAYPLASRISGDKTMAFGDKDDLFGAMGRNGAQKMEQGEAVEGKLLSVGGPYAFKANTYFNLEASDFIKNHNDIKGKEVGYVVRKVVATAGMG”, for which the “soluble on expression in E. coli” value is reported as “not soluble”.

As to “MGSDKIHHHHHHMFQWKKLGKVFTPQDINNRPWLKEFAQAPATLVFDDFVRVYFSCRPPVDEHGMYVSYSAWVDLDRNNLFNVLRVSEKPILPLGQSGEFDEFGTYPVSVVRDENIFRAYYAGWTRCESVPFNVAIGMAISDDGDVFRKAGPGPIISYSPEEPFVMSGPKIRRFNGEWQLFYIAGRRWKLVDGRAEPVYKIRMAVSSDGTNWRKINKDLISSRIEEDEAQASPDVFYANGRYHMFFCYRYSEHYRGKKHGYRIGYAWSSDLIDWHRDDEKVGIDVSETGWDSEMISYPHVFELDGKVYMAYLGDQVGRYGFGLAQLEGELR”, the “soluble on expression in E. coli” value is given as “not soluble”.

For the sequence “MKKIKKAIIPAAGLGTRFLPATKAMPKEMLPILDKPTIQYIVEEAARAGIEDIIIVTGRHKRAIEDHFDSQKELEMVLKEKGKSELLEKVQYSTELANIFYVRQKEQKGLGHAISSARQFIGNEPFAVLLGDDIVESEVPAVKQLIDVYEETGHSVIGVQEVPEADTHRYGIIDPLTKNGRQYEVKKFVEKPAQGTAPSNLAIMGRYVLTPEIFDYLKTQKEGAGNEIQLTDAIERMNNDNQVYAYDFEGERYDVGEKLGFVKTTIEYALKDDSMREELTRFIKALGL”, the “soluble on expression in E. coli” value is given as “not soluble”.

On to “MSLNELRKRVEIERSLHEAEFKALSYQINPHFLFNVLNTIGRLAFLEDAQRTETMVHDFSDMMRYLLRKNSHGLITLRNEINYVNNYMSIQKVRMRDRFDYLCDIPEKYLDVVCPFLILQPLVENFFNYVVEPRDSNSHLLIRATDDGLNVIIEVTDNGDGIAPDTINRILSGDQKLQKGSIGINNIKNRLKLLFGESYGLEIMSPNKPRMGTTIKLRFPMQEAEGHHHHHH”, for which the “soluble on expression in E. coli” value is recorded as “soluble”.

In the case of “MAEIGIFVGTMYGNSLLVAEEAEAILTAQGHKATVFEDPELSDWLPYQDKYVLVVTSTTGQGDLPDSIVPLFQGIKDSLGFQPNLRYGVIALGDSSYVNFCNGGKQFDALLQEQSAQRVGEMLLIDASENPEPETESNPWVEQWGTLLS”, the “soluble on expression in E. coli” value is listed as “soluble”.

Turning to “MTHRPELHVTPEIGILDAPAGALFDGTRWHLFHQFRPKATAPSRWAHDYATTDPFNWEICDDVIAPQGDEIRLRAGSVTSDGKTTRLYFTSITNEGDSIHLAEITDLDATTYDVNDDATTTDPHVTRLGQVVADQGGYTNFRSPCVVPNWVTADDRDEGHSGWIMLAVTGDMDEPTLVILDSENGTDWELRGPLKVVGNSGIEAERPVAPRIIRLRDEIDQNVYDILIVTIEIGGIDRSGYLVGKLHNNIFTVVSPFTRIDYGHDFTRPRNTNYTSHLNSSVAPEHRYSHAHVFGLMNGIGRLDDATTHLSFREEQWANCLSLPRRMTLQGGKIYHTPVAGLPDAIRDSDHAIMWTGLLDVPLGEKVTVELVDTTGNIAAKITHYGDLLELDRSMNPHHEGDDIAVAPLTEDDTDSVTIIVDGSTVEVFADGGQIAMASRVYFNGYCEAFTPQASDGADILRSDVTKPLG”, the “soluble on expression in E. coli” value is recorded as “not soluble”.

With “GAEPKGLLRVDLPVSLGRMVVIPALPEFTRRYPQVRLEIGMSDRPVDLIREGVDCVLRAGAALDEALVARPLGSLTQITCASREYLQQHGTPLQLEDLAHHQVIEYFSASTSKRYGLEFVGEGGAPDHGLACSISVNSADGY”, the “soluble on expression in E. coli” value was “not soluble”.

“GSLILDGDLLKDKLKLPVIDNLFGKELLDKFQDDIKDKYGVDTKDLKILKTSEDKRFYYVSVDAGDGEKCKFKIRKDVDVPKMVGRKCRKDDDDDDGY”: the “soluble on expression in E. coli” value is “soluble”.

In the case of “MVYFEEVRRHIRIDAAHVYGGLLATLTALYEYHQIPYEGIPVGTIKKKMTGKGNASKEEIIKVVCAKGHASCDDNEADALATLHVMKGKEIRHVN”, the “soluble on expression in E. coli” value is “not soluble”.

These data come from the DeepSol protein solubility set.
